US8669345 (Biogen, dated 2014)

Assays:
[1] = biological target: T1, peptide LDLSDNAALRVVDPTT (Q117A); test: ELISA, peptides immobilized on MaxiSorp plate
T1 construct: also called Gln17Ala (so in the source)
T1 peptide: LDLSDNAALRVVDPTT

[2] = biological target: T2, peptide LDLSDNAQLHVVDPTT (R119H); test: ELISA, peptides immobilized on MaxiSorp plate
T2 construct: also called Arg119His; R11911 (so in the source)
T2 peptide: LDLSDNAQLHVVDPTT

[3] = biological target: T3, tryptic peptide AAAFTGLTLLEQLDLSDNAQLR (rat); test: tryptic digest of sNgR310, MS and sequence analysis
T3 construct: tryptic digest peptide of rat sNgR310
T3 peptide: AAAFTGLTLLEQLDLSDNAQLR

[4] = biological target: T4, Nogo receptor-1 (species and construct not stated); test: surface plasmon resonance (BIAcore) per the text; NgR1 construct not stated
T4 sequence (Q9BZR6 27-447, species assumed, looked up): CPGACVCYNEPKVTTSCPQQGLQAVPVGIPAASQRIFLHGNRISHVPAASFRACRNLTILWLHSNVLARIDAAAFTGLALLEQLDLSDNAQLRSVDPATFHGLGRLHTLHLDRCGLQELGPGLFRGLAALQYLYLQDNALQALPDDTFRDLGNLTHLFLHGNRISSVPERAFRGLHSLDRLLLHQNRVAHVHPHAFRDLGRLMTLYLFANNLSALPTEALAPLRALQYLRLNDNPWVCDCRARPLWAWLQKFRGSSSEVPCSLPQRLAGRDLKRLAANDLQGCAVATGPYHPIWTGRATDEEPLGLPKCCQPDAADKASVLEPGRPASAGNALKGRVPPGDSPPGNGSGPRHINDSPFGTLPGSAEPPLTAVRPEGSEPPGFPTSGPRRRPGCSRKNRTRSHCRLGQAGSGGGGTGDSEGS

[5] = biological target: T5, 15 kDa acid fragment of sNgR310 (aa 27-aa 122) (rat, UniProt Q99M75 27-122); test: western blot
T5 construct: acid cleavage product of rat sNgR310
T5 chain: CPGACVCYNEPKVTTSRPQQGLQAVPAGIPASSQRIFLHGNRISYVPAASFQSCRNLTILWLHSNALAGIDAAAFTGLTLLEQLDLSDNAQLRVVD
Method: (§1) A recombinant fragment of the rat NgR1 that contains all 8 LRR domains and the N- and C-terminal caps (sNgR310) was treated with either acid or cyanogen bromide (CNBr) and separated the fragments by gel electrophoresis.

[6] = biological target: T6, 35 kDa CNBr fragment of sNgR310 (aa 27-aa 229) (rat, UniProt Q99M75 27-229); test: western blot
T6 construct: CNBr cleavage product of rat sNgR310; also called 33/35 kDa doublet
T6 chain: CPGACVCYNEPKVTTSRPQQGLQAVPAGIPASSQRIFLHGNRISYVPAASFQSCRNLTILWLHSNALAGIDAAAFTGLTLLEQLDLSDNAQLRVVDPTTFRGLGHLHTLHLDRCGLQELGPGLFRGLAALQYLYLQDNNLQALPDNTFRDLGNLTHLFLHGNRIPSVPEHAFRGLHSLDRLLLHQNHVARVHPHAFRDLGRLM
Method: as §1

[7] = biological target: T7, 10 kDa CNBr fragment of sNgR310 (aa 241-aa 310) (rat, UniProt Q99M75 241-310); test: western blot
T7 construct: CNBr cleavage product of rat sNgR310
T7 chain: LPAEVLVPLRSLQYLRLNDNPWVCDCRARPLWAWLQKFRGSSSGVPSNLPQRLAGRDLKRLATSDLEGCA
Method: as §1

[8] = biological target: T8, peptide LDALSDDAELR (Scrambled Fragment #2, deaminated); test: MS of peptides bound by 7E11
T8 peptide: LDALSDDAELR

[9] = biological target: T9, peptide LDLSDDAELR (deaminated wild-type fragment); test: MS of peptides bound by 7E11
T9 construct: deamination at Asn115 and Gln117
T9 peptide: LDLSDDAELR

[10] = biological target: T10, peptide LDLASDDAELR (Scrambled Fragment #1, deaminated); test: MS of peptides bound by 7E11
T10 peptide: LDLASDDAELR

[11] = biological target: T11, peptide LDLSSDNAQLR (Scrambled Fragment #3); test: MS of peptides bound by 7E11
T11 peptide: LDLSSDNAQLR

[12] = biological target: T12, peptide LDALSDNAQLR (Scrambled Fragment #2); test: MS of peptides bound by 7E11
T12 peptide: LDALSDNAQLR

[13] = biological target: T13, peptide LDLSDNAQLR (Wild-type Fragment) (rat); test: MS of peptides bound by 7E11
T13 peptide: LDLSDNAQLR

[14] = biological target: T14, peptide LDLASDNAQLR (Scrambled Fragment #1); test: MS of peptides bound by 7E11
T14 peptide: LDLASDNAQLR

peptide DNAQLRVVDPTT = biological target: T15, peptide DNAQLRVVDPTT (rat); test: endoprotease Asp-N digest of p-617
T15 peptide: DNAQLRVVDPTT

B1: monoclonal antibody 7E11 (antibody, V domains shown)
VH: VQLQESGAELVMPGASVKMSCKASGYTFTDYWMHWVKQRPGQGLEWIGAIDPSDSYSSYNQNFKGKATLTVDGSSSTAYMQLSSLTSEDSAVYYCARRITEAGAWFAYWGQGTTVT
VL: DVVMTQTPLSLPVSLGDQASISCRSSQSLVHSNGNTYLHWYLQKPGQSPKLLIYKVSNRFSGVPDRFSGSGSGTDFTLKISRVDAEDLGVYFCSQSTHVPFTFGGGTKLEIKR
notes: murine IgG1, kappa; immunogen: peptide of rat NgR1 residues 110-125; also called mAb 7E11; HB 7E11 (ATCC PTA-4587)
[1]
  fold increase of EC50 against the original peptide: 30 fold
[2]
  fold increase of EC50 against the original peptide: 25 fold
[3]
  binding result: binds
[4]
  Kd: 100 nM
[5]
  binding result: binds
[6]
  binding result: binds
[7]
  binding result: no binding
[8]
  binding result: binds
[9]
  binding result: binds
[10]
  binding result: binds
[11]
  binding result: binds
[12]
  binding result: binds
[13]
  binding result: binds
[14]
  binding result: binds
Peptide DNAQLRVVDPTT
  binding result: binds
